The text below walks through data of the Human Domainome abundance scans (Beltran et al. 2025).

± gives the uncertainty stated by the source.

B1: Myocardin, residues 363 to 406; numbered along this chain, Q8IZQ8 (parent)
chain: KPGPLPPNLDDLKVSELRQQLRIRGLPVSGTKTALMDRLRPFQD

The variants in the data set derive from B1. Nature of the data set: abundance fitness (aPCA) (normalised: wild type 0, dead -1); higher = more abundant; growth selection in yeast, the domain comes from the species named. Particulars: Homo sapiens.
Turning to KPGPLPPNLDDLKVSELRQQLRIRGLPVSGTKVALMDRLRPFQD [T33V], the abundance fitness came out at 0.016 ± 0.063. As for KPGPLPPNLDDLKVSELRQQLRIRGLPVSGTKSALMDRLRPFQD [T33S], the abundance fitness is -0.071 ± 0.095. For KPGPLPPNLDDLKVSELRQQLRIRGLPVSGTKLALMDRLRPFQD [T33L] the value was -0.19 ± 0.079. Consider KPGPLPPNLDDLKVSELRQQLRIRGLPVSGTKQALMDRLRPFQD [T33Q], for which the abundance fitness is -0.385 ± 0.21. In the case of KPGPLPPNLDDLKVSELRQQLRIRGLPVSGTKWALMDRLRPFQD [T33W] it was -0.467 ± 0.099; in that of KPGPLPPNLDDLKVSELRQQLRIRGLPVSGTKDALMDRLRPFQD [T33D], 0.138 ± 0.1. In the case of KPGPLPPNLDDLKVSELRQQLRIRGLPVSGTKNALMDRLRPFQD [T33N] it was -0.001 ± 0.08; in that of KPGPLPPNLDDLKVSELRQQLRIRGLPVSGTKAALMDRLRPFQD [T33A], 0.077 ± 0.064.

Consider KPGPLPPNLDDLKVSELRQQLRIRGLPVSGTKPALMDRLRPFQD [T33P], for which the abundance fitness is -0.17 ± 0.087. In the case of KPGPLPPNLDDLKVSELRQQLRIRGLPVSGTKFALMDRLRPFQD [T33F] it was -0.144 ± 0.16; in that of KPGPLPPNLDDLKVSELRQQLRIRGLPVSGTKKALMDRLRPFQD [T33K], 0.016 ± 0.14; in that of KPGPLPPNLDDLKVSELRQQLRIRGLPVSGTKMALMDRLRPFQD [T33M], -0.402 ± 0.14. Regarding KPGPLPPNLDDLKVSELRQQLRIRGLPVSGTKRALMDRLRPFQD [T33R], the abundance fitness was -0.055 ± 0.059. For KPGPLPPNLDDLKVSELRQQLRIRGLPVSGTKIALMDRLRPFQD [T33I] the value was 0.085 ± 0.14; for KPGPLPPNLDDLKVSELRQQLRIRGLPVSGTKCALMDRLRPFQD [T33C], -0.072 ± 0.1; for KPGPLPPNLDDLKVSELRQQLRIRGLPVSGTKEALMDRLRPFQD [T33E], 0.292 ± 0.078. Turning to KPGPLPPNLDDLKVSELRQQLRIRGLPVMGTKTALMDRLRPFQD [S29M], the abundance fitness is -0.003 ± 0.14. For KPGPLPPNLDDLKVSELRQQLRIRGLPVPGTKTALMDRLRPFQD [S29P] the value was -0.605 ± 0.095; for KPGPLPPNLDDLKVSELRQQLRIRGLPVQGTKTALMDRLRPFQD [S29Q], 0.006 ± 0.16; for KPGPLPPNLDDLKVSELRQQLRIRGLPVVGTKTALMDRLRPFQD [S29V], -0.097 ± 0.079. In the case of KPGPLPPNLDDLKVSELRQQLRIRGLPVRGTKTALMDRLRPFQD [S29R] it was -0.362 ± 0.068; in that of KPGPLPPNLDDLKVSELRQQLRIRGLPVTGTKTALMDRLRPFQD [S29T], -0.001 ± 0.087.

KPGPLPPNLDDLKVSELRQQLRIRGLPVFGTKTALMDRLRPFQD [S29F]: the abundance fitness is -0.245 ± 0.32. In the case of KPGPLPPNLDDLKVSELRQQLRIRGLPVLGTKTALMDRLRPFQD [S29L] it was -0.333 ± 0.093. For KPGPLPPNLDDLKVSELRQQLRIRGLPVNGTKTALMDRLRPFQD [S29N], the abundance fitness was -0.264 ± 0.21. Consider KPGPLPPNLDDLKVSELRQQLRIRGLPVEGTKTALMDRLRPFQD [S29E], for which the abundance fitness was 0.129 ± 0.074. For KPGPLPPNLDDLKVSELRQQLRIRGLPVGGTKTALMDRLRPFQD [S29G] the value was 0.042 ± 0.07. In the case of KPGPLPPNLDDLKVSELRQQLRIRGLPVCGTKTALMDRLRPFQD [S29C] it was -0.191 ± 0.11. For the variant KPGPLPPNLDDLKVSELRQQLRIRGLPVHGTKTALMDRLRPFQD [S29H], the abundance fitness was -0.108 ± 0.16. In the case of KPGPLPPNLDDLKVSELRQQLRIRGLPVKGTKTALMDRLRPFQD [S29K] it was -0.113 ± 0.081. With KPGPLPPNLDDLKVSELRQQLRIRGLPVAGTKTALMDRLRPFQD [S29A], the abundance fitness is -0.071 ± 0.064. As for KPGPLPPNLDDLKVSELRQQLRIRGLPVIGTKTALMDRLRPFQD [S29I], the abundance fitness was -0.376 ± 0.098. In the case of KPGPLPPNLDDLKVSELRQQLRIRGLPVYGTKTALMDRLRPFQD [S29Y] it was -0.095 ± 0.29; in that of KPGPLPPNLDDLKVSELRQQLRIRGLPVSGTKTMLMDRLRPFQD [A34M], -0.262 ± 0.18. Take KPGPLPPNLDDLKVSELRQQLRIRGLPVSGTKTFLMDRLRPFQD [A34F]: the abundance fitness was -0.909 ± 0.22. For the variant KPGPLPPNLDDLKVSELRQQLRIRGLPVSGTKTPLMDRLRPFQD [A34P], the abundance fitness is -0.825 ± 0.22.

Turning to KPGPLPPNLDDLKVSELRQQLRIRGLPVSGTKTCLMDRLRPFQD [A34C], the abundance fitness was -0.467 ± 0.1. As to KPGPLPPNLDDLKVSELRQQLRIRGLPVSGTKTELMDRLRPFQD [A34E], the abundance fitness was found to be 0.011 ± 0.066. In the case of KPGPLPPNLDDLKVSELRQQLRIRGLPVSGTKTDLMDRLRPFQD [A34D] it was 0.137 ± 0.077; in that of KPGPLPPNLDDLKVSELRQQLRIRGLPVSGTKTLLMDRLRPFQD [A34L], -0.721 ± 0.13; in that of KPGPLPPNLDDLKVSELRQQLRIRGLPVSGTKTKLMDRLRPFQD [A34K], -0.4 ± 0.11.

KPGPLPPNLDDLKVSELRQQLRIRGLPVSGTKTGLMDRLRPFQD [A34G]: the abundance fitness was -0.556 ± 0.075. In the case of KPGPLPPNLDDLKVSELRQQLRIRGLPVSYTKTALMDRLRPFQD [G30Y] it was -0.951 ± 0.14; in that of KPGPLPPNLDDLKVSELRQQLRIRGLPVSETKTALMDRLRPFQD [G30E], -0.607 ± 0.11. Take KPGPLPPNLDDLKVSELRQQLRIRGLPVSRTKTALMDRLRPFQD [G30R]: the abundance fitness was -0.876 ± 0.12.

On to KPGPLPPNLDDLKVSELRQQLRIRGLPVSSTKTALMDRLRPFQD [G30S], for which the abundance fitness was -0.779 ± 0.1.

Consider KPGPLPPNLDDLKVSELRQQLRIRGLPVSLTKTALMDRLRPFQD [G30L], for which the abundance fitness is -0.879 ± 0.12. In the case of KPGPLPPNLDDLKVSELRQQLRIRGLPVSATKTALMDRLRPFQD [G30A] it was -0.967 ± 0.14; in that of KPGPLPPNLDDLKVSELRQQLRIRGLPVSNTKTALMDRLRPFQD [G30N], -0.871 ± 0.48; in that of KPGPLPPNLDDLKVSELRQQLRIRGLPVSDTKTALMDRLRPFQD [G30D], -0.504 ± 0.13. For KPGPLPPNLDDLKVSELRQQLRIRGLPVSCTKTALMDRLRPFQD [G30C] the value was -0.709 ± 0.17; for KPGPLPPNLDDLKVSELRQQLRIRGLPVSTTKTALMDRLRPFQD [G30T], -0.901 ± 0.3.

With KPGPLPPNLDDLKVSELRQQLRIRGLPVSVTKTALMDRLRPFQD [G30V], the abundance fitness is -0.894 ± 0.096. KPGPLPPNLDDLKVSELRQQLRIRGLPVSGQKTALMDRLRPFQD [T31Q]: the abundance fitness is -0.273 ± 0.12. In the case of KPGPLPPNLDDLKVSELRQQLRIRGLPVSGSKTALMDRLRPFQD [T31S], the abundance fitness was found to be 0.103 ± 0.1.

Consider KPGPLPPNLDDLKVSELRQQLRIRGLPVSGAKTALMDRLRPFQD [T31A], for which the abundance fitness is 0.078 ± 0.1. Take KPGPLPPNLDDLKVSELRQQLRIRGLPVSGFKTALMDRLRPFQD [T31F]: the abundance fitness is -0.718 ± 0.39. For KPGPLPPNLDDLKVSELRQQLRIRGLPVSGNKTALMDRLRPFQD [T31N] the value was 0.352 ± 0.11.
